Tests used:
PUF-8R N1080Y = PUF-8R N1080Y (human, UniProt Q14671 828-1176, N1080Y); assay: FP
PUF-8R H972Y = PUF-8R H972Y (human, UniProt Q14671 828-1176, H972Y); assay: FP
[1] = target: PUF-8R (Pumilio1 PUF domain, wild type) (human, UniProt Q14671 828-1176); assay: FP
PUF-8R R1008Y = PUF-8R R1008Y (human, UniProt Q14671 828-1176, R1008Y); assay: FP
PUF-9R [2] = target: T1, PUF-9R (human, engineered, UniProt Q14671 828-955+1028-1142+1028-1176, internal_change); assay: FP
PUF-9R [3] = target: T1, PUF-9R; assay: crystal structure
PUF-10R = PUF-10R (human, engineered, UniProt Q14671 828-955+992-1142+1028-1176, internal_change); assay: FP
PUF-12R = PUF-12R (human, engineered, UniProt Q14671 828-1027+992-1142+1028-1176, internal_change); assay: FP

Q: Which results are given for AAUUGUAUAUAUUC (ssRNA) [8nt-RNA]?
A: binding signal (PUF-8R N1080Y): > 8 fold Ka vs PUF-8R R1008N; binding result (PUF-8R H972Y): binds; binding result [1]: binds; binding result (PUF-8R R1008Y): binds

Q: With AAUUGUUGUAUAUUC (ssRNA) [9nt-RNA] as the binder, how does the binding signal (PUF-9R [2]) read?
A: The binding signal was ~12 fold Ka vs PUF-8R:RNA-8nt.

Q: Does UGUUGUAUA (ssRNA) [RNA-9nt (crystal)] bind (PUF-9R [3])?
A: Result: binds

Q: AAUUGUUGUAAUAUUC (ssRNA) [10nt-RNA] was tested. Which binding signal (PUF-10R) did it give?
A: The binding signal was ~7 fold Ka vs PUF-8R:RNA-8nt.

Q: Does AAUUGUUGUAAUAUAUUC (ssRNA) [12nt-RNA] bind (PUF-12R)?
A: Result: binds

— paper PMC5961129
